From patent publication US5792742A, “Fibrin-binding peptide fragments of fibronectin” (New York University, priority 1994, dated 1998)
[ ]: non-standard residue; d: D form. pGlu = O=C1CC[C@@H](C(=O)O)N1

What was measured:
fibrin [1] = assay: Fibrin-SEPHAROSE affinity chromatography (binding and elution); design: species or system bovine
Protocol: Bovine fibrinogen was cross-linked to CNBr-activated SEPHAROSE™ (5 mg/ml beads) according to the manufacturer's instructions. Coupled fibrinogen was subsequently converted to fibrin by incubation with human thrombin to a final concentration of 5 NIH units/ml and 100 K.I. (kallikrein inhibitory) units/ml of aprotinin (in 0.05M Tris-HCI buffer, pH 7.6, containing 0.1M NaCl and 0.01M EDTA) for three hours, at room temperature (Gold, et al. (1983) Biochemistry 22, 4113-4119).
1.0M NaCl in 0.05M tris buffer, pH 8.0.
The fibrin-binding activity of the proteolytically derived 25.9 kDa fragment of Fn was determined by its ability to bind to a fibrin affinity matrix. […] FBB was used to equilibrate and wash the column. Following warming of the column to 22° C., the column was washed with FBB until absorbance at 280 nm (A280) was less than 0.01, and bound protein eluted with 0.05M Tris-HCl, 0.5M NaCl, 6M urea buffer, pH 7.6.
The module (500 μg/1.0 ml) was incubated for 4 hours (while rotating) at 4° C. in the presence of 1.0 ml fibrin-SEPHAROSE™ (5 mg fibrin/ml SEPHAROSE™ beads) equilibrated in […] Tris-HCl, 0.1M NaCl buffer, pH 7.6.
The 11 KDa peptide (50 μg/0.206 ml) was radiolabeled using the IODO-BEAD method (Pierce Chemical). The peptide was added to one IODO-BEAD in the presence of 100 μCi ^125 I (17.4 Ci/mg, New England Nuclear) and incubated on ice for 10 minutes. […]

fibrin [2] = details: 0-10 μM competitor, biotinylated Fn 2.3 nM
Protocol: Since the anti-Fn detection system described for the ELISA above could not be used in Fn competition assays employing the intact Fn molecule or the 25.8 kDa proteolytic fragment, purified Fn was biotinylated using water soluble NHS-LC-Biotin (Pierce Chemm. Co.; according to the manufacturer's instructions) and binding to fibrin detected by alkaline phosphatase conjugated streptavidin (diluted 1/500 in FBBT/BSA) for 1 hour at 22° C., followed by the addition of p-nitrophenyl phosphate, as described above. To ensure that the biotinylation of the Fn had not affected its ability to bind to fibrin, fibrin-binding activity was tested by incubating increasing concentrations of biotinylated Fn (10-300 ng/0.1 ml FBB) with the fibrin-coated wells (200 ng) and detected (see FIG. 28A) using alkaline phosphatase-conjugated streptavidin and the reaction developed as described for Direct Elisa.
To compare the relative fibrin-binding affinities of the ^4 F1.^5 F1 recombinant module pair and the 25.9 kDa proteolytic fragment (^1 F1-^5 F1) with that of the native Fn molecule, these purified proteins were competed with biotinylated plasma Fn for binding to fibrin coated wells and the extent of inhibition of binding assessed by incubation with alkaline phosphatase-conjugated streptavidin. […] Biotinylated Fn (100 ng/0.1 ml FBB: 2.3 nM) was combined with increasing concentrations (0-10 μM) of either unlabeled Fn, the 25.9 kDa proteolytic fragment, or the separate ^4 F1.^5 F1, and ^10 F1 recombinant modules and incubated with the fibrin-coated microtiter wells for 1 hour at 22° C. […] Bound biotinylated Fn was quantitated as described above.

fibrin [3] = assay: ELISA: competitive inhibition of fibronectin binding to fibrin by type 1 recombinant modules; details: up to 5,000-50,000 molar excess compared to Fn
Protocol: Fibrin-binding activity was also assessed by an ELISA. Fn was reacted with fibrin-coated microtiter plates and bound Fn was determined by incubation with a polyclonal rabbit anti-Fn antiserum followed by alkaline phosphatase-labeled anti-rabbit Ig. […] Thus, on a mole-per-mole basis, assuming complete attachment of all the fibrinogen applied to the polystyrene plate, total proteolytic conversion to fibrin, and accessibility of the binding sites, 0.8 moles of Fn per mole of fibrin were required to achieve maximum binding (assuming a molecular weight of 340 kDa for the fibrin hexamer and 440 kDa for the Fn dimer).
The recombinant Fn modules were used to inhibit the binding of Fn to the fibrin-coated microtiter plates. […] At this saturating concentration, the binding of Fn to fibrin was inhibited by 70%.

fibrin [4] = details: Husain et al. 1981; cited from earlier work

B1: ^1 F1.^2 F1: recombinant fibronectin module pair, first and second type 1 modules, amino acids 1-106; negative control (protein)
chain: QAQQMVQPQSPVAVSQSKPGCYDNGKHYQINQQWERTYLGNALVCTCYGGSRGFNCESKPEAEETCFDKYTGNTYRVGDTYERPKDSMIWDCTCIGAGRGRISCTI
modifications: N-terminal pyroglutamate; the major species lacks the NH2-terminal Gln-Ala dipeptide and its new N-terminal Gln is also pyroglutamate
notes: recombinant fibronectin module pair, first and second type 1 modules, amino acids 1-106; negative control
% of protein that did not bind to fibrin-Sepharose (unbound fraction) (fibrin [1]): ~100% | binding to fibrin-Sepharose (fibrin [1]): none was present | inhibition of biotinylated Fn binding (non-fibrin-binding modules) (fibrin [2]): 15% | inhibition of the binding of Fn to fibrin (non-binding modules) (fibrin [3]): < 20%

B2: ^1 F1: recombinant first type 1 module of fibronectin, amino acids 1-61 (protein)
chain: [pGlu]AQQMVQPQSPVAVSQSKPGCYDNGKHYQINQQWERTYLGNALVCTCYGGSRGFNCESKPE
modifications: not fully specified; also: major species lacks N-terminal Gln-Ala, its new N-terminal Gln3 is pyroglutamate
inhibition of the binding of Fn to fibrin (non-binding modules) (fibrin [3]): < 20%

B3: tPA preparation of Husain et al.: high-affinity plasminogen activator preparation of Husain et al. (1981) (protein, UniProt P00750 36-562, looked up)
Tissue-type plasminogen …: SYQVICRDEKTQMIYQQHQSWLRPVLRSNRVEYCWCNSGRAQCHSVPVKSCSEPRCFNGGTCQQALYFSDFVCQCPEGFAGKCCEIDTRATCYEDQGISYRGTWSTAESGAECTNWNSSALAQKPYSGRRPDAIRLGLGNHNYCRNPDRDSKPWCYVFKAGKYSSEFCSTPACSEGNSDCYFGNGSAYRGTHSLTESGASCLPWNSMILIGKVYTAQNPSAQALGLGKHNYCRNPDGDAKPWCHVLKNRRLTWEYCDVPSCSTCGLRQYSQPQFRIKGGLFADIASHPWQAAIFAKHRRSPGERFLCGGILISSCWILSAAHCFQERFPPHHLTVILGRTYRVVPGEEEQKFEVEKYIVHKEFDDDTYDNDIALLQLKSDSSRCAQESSVVRTVCLPPADLQLPDWTECELSGYGKHEALSPFYSERLKEAHVRLYPSSRCTSQHLLNRTVTDNMLCAGDTRSGGPQANLHDACQGDSGGPLVCLNDGRMTLVGIISWGLGCGQKDVPGVYTKVTNYLDWIRDNMRP
arginine concentration eluting from solid phase fibrin (fibrin [4]): 0.2 mM
